The source of these data is paper PMC3774712, “Characterization of a Self-sufficient Trans-Anethole Oxygenase from Pseudomonas putida JYR-1” (PLoS ONE, 2013).

For series [1], the target named is T1, GST-TAO (N175–348) (Pseudomonas putida, UniProt H8Y0R3).
T1 construct: C-terminal fragment residues 175-348 (plasmid pGEX-TAO (C174)), N-terminal GST tag kept, expressed in E. coli BL21(DE3), purified
T1 sequence (H8Y0R3 175-348): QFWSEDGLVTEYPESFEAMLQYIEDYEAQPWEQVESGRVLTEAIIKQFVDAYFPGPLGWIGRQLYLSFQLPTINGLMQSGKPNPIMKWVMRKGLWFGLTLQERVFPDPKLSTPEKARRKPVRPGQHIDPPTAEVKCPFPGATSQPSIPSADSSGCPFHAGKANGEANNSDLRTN
Nature of the series: ultrafiltration, fluorescence of unbound FAD. Format: binding. The settings on record: 3 µM FAD, 3 µM enzyme, 20 mM Tris-HCl pH 8.0, 25°C. From the text: ultrafiltration, fluorescence of unbound FAD on GST-TAO (N175–348)

For series [2], the target named is T2, GST-TAO (N1–261) (Pseudomonas putida, UniProt H8Y0R3).
T2 construct: N-terminal fragment residues 1-261, N-terminal GST tag kept, expressed in E. coli BL21(DE3), purified
T2 sequence (H8Y0R3 1-261): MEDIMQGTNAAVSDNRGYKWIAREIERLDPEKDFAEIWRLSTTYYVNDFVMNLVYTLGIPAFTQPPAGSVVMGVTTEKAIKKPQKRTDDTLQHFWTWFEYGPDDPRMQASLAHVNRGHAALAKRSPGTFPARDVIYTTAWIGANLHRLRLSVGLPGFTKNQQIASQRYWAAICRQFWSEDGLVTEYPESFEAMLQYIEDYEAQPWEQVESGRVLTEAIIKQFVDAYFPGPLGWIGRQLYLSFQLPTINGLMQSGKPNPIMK
Nature of the series: ultrafiltration, fluorescence of unbound FAD. Format: binding. The settings on record: 3 µM FAD, 3 µM enzyme, 20 mM Tris-HCl pH 8.0, 25°C. The text has this: ultrafiltration, fluorescence of unbound FAD on GST-TAO (N1–261)

Series [3] has as its target T3, GST-TAO (N1–304) (Pseudomonas putida, UniProt H8Y0R3).
T3 construct: N-terminal fragment residues 1-304, N-terminal GST tag kept, expressed in E. coli BL21(DE3), purified
T3 sequence (H8Y0R3 1-304): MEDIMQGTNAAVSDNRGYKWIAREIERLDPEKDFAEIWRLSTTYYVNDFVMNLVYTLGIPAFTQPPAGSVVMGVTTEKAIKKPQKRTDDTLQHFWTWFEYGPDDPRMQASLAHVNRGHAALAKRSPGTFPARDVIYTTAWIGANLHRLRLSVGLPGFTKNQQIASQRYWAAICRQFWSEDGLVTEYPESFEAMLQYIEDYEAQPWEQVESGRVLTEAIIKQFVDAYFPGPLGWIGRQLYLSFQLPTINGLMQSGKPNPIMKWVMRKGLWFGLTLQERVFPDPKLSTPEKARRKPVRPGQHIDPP
Nature of the series: ultrafiltration, fluorescence of unbound FAD. The settings on record: 3 µM FAD, 3 µM enzyme, 20 mM Tris-HCl pH 8.0, 25°C. Format: binding. The text has this: ultrafiltration, fluorescence of unbound FAD on GST-TAO (N1–304)

For series [4], the target named is T4, GST-TAO (N1–174) (Pseudomonas putida, UniProt H8Y0R3).
T4 construct: N-terminal fragment residues 1-174, N-terminal GST tag kept, expressed in E. coli BL21(DE3), purified
T4 sequence (H8Y0R3 1-174): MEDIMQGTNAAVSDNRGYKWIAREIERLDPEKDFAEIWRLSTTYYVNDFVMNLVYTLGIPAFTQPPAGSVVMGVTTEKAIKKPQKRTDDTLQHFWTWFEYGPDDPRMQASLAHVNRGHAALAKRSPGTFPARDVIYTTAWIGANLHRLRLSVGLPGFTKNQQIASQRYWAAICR
Description: ultrafiltration, fluorescence of unbound FAD. Format: binding. The settings on record: 3 µM FAD, 3 µM enzyme, 20 mM Tris-HCl pH 8.0, 25°C. The text has this: ultrafiltration, fluorescence of unbound FAD on GST-TAO (N1–174)

The target of series [5] is T5, GST-TAO (wild-type, N1-348) (Pseudomonas putida, UniProt H8Y0R3).
T5 construct: full length TAO (348 aa, 39,328 Da calculated), N-terminal GST tag kept (pGEX-5X-1), expressed in E. coli BL21(DE3), GSTrap purified, 68 kDa on SDS-PAGE
T5 sequence (H8Y0R3 1-348): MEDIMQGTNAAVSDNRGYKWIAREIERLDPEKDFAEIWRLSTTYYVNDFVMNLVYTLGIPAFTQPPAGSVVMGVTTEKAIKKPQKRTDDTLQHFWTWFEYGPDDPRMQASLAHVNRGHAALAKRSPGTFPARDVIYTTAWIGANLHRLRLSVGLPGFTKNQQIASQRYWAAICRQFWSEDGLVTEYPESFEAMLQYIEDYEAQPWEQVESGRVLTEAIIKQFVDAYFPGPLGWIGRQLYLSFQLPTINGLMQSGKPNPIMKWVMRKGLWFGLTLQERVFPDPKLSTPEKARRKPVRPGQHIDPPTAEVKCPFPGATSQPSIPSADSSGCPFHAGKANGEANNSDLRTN
Nature of the series: ultrafiltration, fluorescence of unbound FAD. The settings on record: 3 µM FAD, 3 µM enzyme, 20 mM Tris-HCl pH 8.0, 25°C. Format: binding. The text has this:
ultrafiltration, fluorescence of unbound FAD on GST-TAO (wild-type, N1-348)

Series [6] has as its target T6, GST-TAO (N1–104) (Pseudomonas putida, UniProt H8Y0R3).
T6 construct: N-terminal fragment residues 1-104, N-terminal GST tag kept, expressed in E. coli BL21(DE3), purified
T6 sequence (H8Y0R3 1-104): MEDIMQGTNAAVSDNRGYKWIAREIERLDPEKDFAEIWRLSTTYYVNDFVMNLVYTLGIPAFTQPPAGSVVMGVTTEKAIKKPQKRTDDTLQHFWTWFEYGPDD
Description: ultrafiltration, fluorescence of unbound FAD. Format: binding. The settings on record: 3 µM FAD, 3 µM enzyme, 20 mM Tris-HCl pH 8.0, 25°C. The text has this: ultrafiltration, fluorescence of unbound FAD on GST-TAO (N1–104)

Substrate in series [7]: CC=Cc1ccc(O)c(OC)c1
Nature of the series: purified protein. The settings on record: 10 mM NADH, 15 µM FAD, pH 8.0, 30°C, formate dehydrogenase regeneration.
Description: (§1) HPLC of aldehyde product, Michaelis-Menten nonlinear regression on GST-TAO (wild-type, N1-348)

Substrate in series [8]: C/C=C/c1ccc(OC)c(OC)c1
Nature of the series: purified protein. The settings on record: 10 mM NADH, 15 µM FAD, pH 8.0, 30°C, formate dehydrogenase regeneration.
Description: as §1

Substrate in series [9]: CC=Cc1ccc2c(c1)OCO2
Description: purified protein. The settings on record: 10 mM NADH, 15 µM FAD, pH 8.0, 30°C, formate dehydrogenase regeneration.
Description: as §1

Substrate in series [10]: C/C=C/c1ccc(OC)cc1
Description: HPLC of p-anisaldehyde product, Michaelis-Menten nonlinear regression. Format: biochemical, Pseudomonas putida. The settings on record: 10 mM NADH, 15 µM FAD, pH 8.0, 30°C, formate dehydrogenase regeneration, text b30 prints 64.70±2.40. The text has this:
HPLC of p-anisaldehyde product, Michaelis-Menten nonlinear regression on GST-TAO (wild-type, N1-348)

With `Cc1cc2nc3c(=O)[nH]c(=O)nc-3n(C[C@H](O)[C@H](O)[C@H](O)COP(=O)(O)OP(=O)(O)OC[C@H]3O[C@@H](n4cnc5c(N)ncnc54)[C@H](O)[C@@H]3O)c2cc1C` [FAD], the “μM FAD/μM enzyme” value in series [1] was 0.02±0.02 µM FAD/µM enzyme; in series [2] it was 0.15±0.04 µM FAD/µM enzyme; in series [3] it was 0.19±0.04 µM FAD/µM enzyme; in series [4], 0.18±0.03 µM FAD/µM enzyme; in series [5] it was 0.30±0.05 µM FAD/µM enzyme; in series [6], 0.20±0.01 µM FAD/µM enzyme.

B1: GST-TAO (wild-type, N1-348) (Pseudomonas putida) (protein)
chain: T5 sequence (H8Y0R3 1-348)
notes: full length TAO (348 aa, 39,328 Da calculated), N-terminal GST tag kept (pGEX-5X-1), expressed in E. coli BL21(DE3), GSTrap purified, 68 kDa on SDS-PAGE
With B1, in series [7], the Km was 2255.00 ± 346.48 µM, the Vmax was found to be 0.52 µmol/min/mg, the kcat came to 1.13 s⁻¹ and the specificity constant (kcat/Km) is 500 M⁻¹ s⁻¹. For the same molecule, in [8], the Km amounted to 225.65 ± 22.27 µM, the Vmax is 0.06 µmol/min/mg, the kcat is 0.13 s⁻¹ and the kcat/Km came to 560 M⁻¹ s⁻¹. Further, in series [9], the Km amounted to 229.50 ± 32.10 µM, the Vmax was found to be 0.26 µmol/min/mg, the kcat came out at 0.56 s⁻¹ and the kcat/Km came out at 2450 M⁻¹ s⁻¹. Besides, in series [10], the Km was 63.70 ± 2.40 µM, the Vmax was found to be 0.23 µmol/min/mg, the kcat was found to be 0.49 s⁻¹ and the specificity constant (kcat/Km) stood at 7690 M⁻¹ s⁻¹.
